Measured values from the Immune Epitope Database (IEDB).

Legend:
Experiment in all cases: IEDB peptide-MHC binding, purified MHC/competitive/radioactivity; ≥ and ≤ were set here for values at or beyond the usual limits of such assays
[1] = molecular target: HLA-A*02:01
[2] = molecular target: HLA-A*02:02
[3] = molecular target: HLA-A*02:03
[4] = molecular target: HLA-A*02:06
[5] = molecular target: HLA-A*68:02
[6] = source organism: Vaccinia virus WR
[7] = source organism: Influenza A virus

Work on KLFTHDIML yielded an IC50 [1, 6] of 1.4 nM, an IC50 [2, 6] of 1 nM and an IC50 [3, 6] of 3 nM. For the same sequence, the IC50 [4, 6] was 4.7 nM and the IC50 [5, 6] was 769 nM.
For ALLFLMSFTI, the IC50 ([1]; source organism: SARS-CoV1) was 1.6 nM, the IC50 ([2]; source organism: SARS-CoV1) was 0.37 nM and the IC50 ([3]; source organism: SARS-CoV1) was 199 nM. It also gave an IC50 ([4]; source organism: SARS-CoV1) of 14 nM and an IC50 ([5]; source organism: SARS-CoV1) of 1770 nM.
Sequence FLLPLTSLVI has an IC50 [1, 6] of 0.84 nM, an IC50 [2, 6] of 11 nM and an IC50 [3, 6] of 5.1 nM. For the same sequence, the IC50 [4, 6] was 2.5 nM and the IC50 [5, 6] was 1020 nM.
Sequence SISSVLTIL has an IC50 [1, 6] of 26 nM, an IC50 [2, 6] of 1.2 nM and an IC50 [3, 6] of 4 nM. The IC50 [4, 6] was 110 nM and the IC50 [5, 6] was 16 nM.
ILYYGANGST was tested, and the IC50 [1, 6] was 290 nM, the IC50 [2, 6] was 341 nM and the IC50 [3, 6] was 39 nM. It also gave an IC50 [4, 6] of 1840 nM and an IC50 [5, 6] of 3830 nM.
IVSKCIVQSV showed an IC50 [1, 6] of 612 nM, an IC50 [2, 6] of 123 nM and an IC50 [3, 6] of 31 nM. For the same sequence, the IC50 [4, 6] was 552 nM and the IC50 [5, 6] was 50 nM.
Work on TLLCVLAALV yielded an IC50 ([1]; source organism: SARS-CoV1) of 29 nM, an IC50 ([2]; source organism: SARS-CoV1) of 4.6 nM and an IC50 ([3]; source organism: SARS-CoV1) of 77 nM. For the same sequence, the IC50 ([4]; source organism: SARS-CoV1) was 65 nM and the IC50 ([5]; source organism: SARS-CoV1) was 4390 nM.
Sequence FQVDCFLWH has an IC50 [1, 7] of 336 nM, an IC50 [2, 7] of 216 nM and an IC50 [3, 7] of 1260 nM. The IC50 [4, 7] was 93 nM and the IC50 [5, 7] was 3660 nM.
MVDVSMMSM was tested, and the IC50 [1, 6] was 200 nM, the IC50 [2, 6] was 559 nM and the IC50 [3, 6] was 1160 nM. It also gave an IC50 [4, 6] of 101 nM and an IC50 [5, 6] of 519 nM.
For FIASAPQQL, the IC50 [1, 6] was 120 nM, the IC50 [2, 6] was 2 nM and the IC50 [3, 6] was 4.4 nM. The IC50 [4, 6] was 89 nM and the IC50 [5, 6] was 35 nM.
Work on CVMYASALV yielded an IC50 ([1]; source organism: SARS-CoV1) of 9.3 nM, an IC50 ([2]; source organism: SARS-CoV1) of 4.5 nM and an IC50 ([3]; source organism: SARS-CoV1) of 2.9 nM. The IC50 ([4]; source organism: SARS-CoV1) was 7.4 nM and the IC50 ([5]; source organism: SARS-CoV1) was 0.89 nM.
NLDDVYSYI was tested, and the IC50 [1, 6] was 3.8 nM, the IC50 [2, 6] was 0.72 nM and the IC50 [3, 6] was 96 nM. The IC50 [4, 6] was 92 nM and the IC50 [5, 6] was 1030 nM.
In the case of LMIGNYFSGV, the IC50 [1, 6] is reported as 0.27 nM, the IC50 [2, 6] is reported as 0.13 nM and the IC50 [3, 6] is reported as 0.093 nM. The IC50 [4, 6] was 0.13 nM and the IC50 [5, 6] was 160 nM.
MLLNVQTLI gave an IC50 [1, 6] of 2.9 nM, an IC50 [2, 6] of 0.17 nM and an IC50 [3, 6] of 0.25 nM. It also gave an IC50 [4, 6] of 0.22 nM and an IC50 [5, 6] of 216 nM.
MLFTKFFYL was tested, and the IC50 ([1]; source organism: SARS-CoV1) was 0.17 nM, the IC50 ([2]; source organism: SARS-CoV1) was 0.085 nM and the IC50 ([3]; source organism: SARS-CoV1) was 17 nM. The IC50 ([4]; source organism: SARS-CoV1) was 1.4 nM and the IC50 ([5]; source organism: SARS-CoV1) was 0.056 nM.
Work on IMDKEQLLKI yielded an IC50 [1, 6] of 890 nM, an IC50 [2, 6] of 311 nM and an IC50 [3, 6] of 288 nM. It also gave an IC50 [4, 6] of 1340 nM and an IC50 [5, 6] of 3240 nM.
NILMDSIFV showed an IC50 [1, 6] of 179 nM, an IC50 [2, 6] of 252 nM and an IC50 [3, 6] of 223 nM. The IC50 [4, 6] was 170 nM and the IC50 [5, 6] was 147 nM.
